{"source": "the Human Domainome abundance scans (Beltran et al. 2025)", "parents": {"B1": {"name": "Double-stranded RNA-specific adenosine deaminase, residues 296 to 358; numbered along this chain, P55265 (parent)", "chain": "MAEIKEKICDYLFNVSDSSALNLAKNIGLTKARDINAVLIDMERQGDVYRQGTTPPIWHLTDK"}}, "note": "± gives the uncertainty stated by the source."}
{"variants_of": "B1", "test": "abundance fitness (aPCA) (normalised: wild type 0, dead -1); higher = more abundant; growth selection in yeast, the domain comes from the species named", "conditions": "Homo sapiens"}
{"variant": "I27M", "abundance fitness": "-0.359 ± 0.06"}
{"variant": "I27H", "abundance fitness": "-0.548 ± 0.11"}
{"variant": "I27E", "abundance fitness": "-0.274 ± 0.078"}
{"variant": "I27Q", "abundance fitness": "-0.507 ± 0.072"}
{"variant": "I27L", "abundance fitness": "-0.01 ± 0.046"}
{"variant": "I40R", "abundance fitness": "-0.054 ± 0.048"}
{"variant": "I40P", "abundance fitness": "-0.387 ± 0.07"}
{"variant": "I40V", "abundance fitness": "-0.049 ± 0.054"}
{"variant": "I40K", "abundance fitness": "-0.025 ± 0.052"}
{"variant": "I40T", "abundance fitness": "-0.065 ± 0.074"}
{"variant": "Y11R", "abundance fitness": "-0.376 ± 0.046"}
{"variant": "Y11I", "abundance fitness": "-0.214 ± 0.15"}
{"variant": "Y11V", "abundance fitness": "-0.359 ± 0.051"}
{"variant": "Y11K", "abundance fitness": "-0.256 ± 0.057"}
{"variant": "Y11Q", "abundance fitness": "-0.204 ± 0.075"}
{"variant": "Y11F", "abundance fitness": "-0.056 ± 0.11"}
{"variant": "Y11E", "abundance fitness": "-0.035 ± 0.05"}
{"variant": "Y11S", "abundance fitness": "-0.255 ± 0.052"}
{"variant": "Y11P", "abundance fitness": "-0.175 ± 0.06"}
{"variant": "K31C", "abundance fitness": "0.237 ± 0.079"}
{"variant": "K31L", "abundance fitness": "-0.53 ± 0.07"}
{"variant": "K31V", "abundance fitness": "-0.67 ± 0.066"}
{"variant": "K31D", "abundance fitness": "0.36 ± 0.1"}
{"variant": "K31F", "abundance fitness": "-0.695 ± 0.13"}
{"variant": "R50T", "abundance fitness": "-0.406 ± 0.078"}
{"variant": "R50N", "abundance fitness": "-0.379 ± 0.073"}
{"variant": "R50H", "abundance fitness": "-0.274 ± 0.075"}
{"variant": "R50D", "abundance fitness": "-0.761 ± 0.14"}
{"variant": "R50V", "abundance fitness": "-0.381 ± 0.059"}
{"variant": "Y49R", "abundance fitness": "0.007 ± 0.045"}
{"variant": "Y49W", "abundance fitness": "-0.044 ± 0.071"}
{"variant": "Y49K", "abundance fitness": "0.161 ± 0.064"}
{"variant": "Y49V", "abundance fitness": "0.177 ± 0.052"}
{"variant": "Y49I", "abundance fitness": "0.053 ± 0.067"}
{"variant": "K7L", "abundance fitness": "-0.402 ± 0.067"}
{"variant": "K7Y", "abundance fitness": "-0.796 ± 0.085"}
{"variant": "K7Q", "abundance fitness": "-0.938 ± 0.39"}
{"variant": "K7D", "abundance fitness": "-0.533 ± 0.14"}
{"variant": "K7V", "abundance fitness": "-0.641 ± 0.092"}
{"variant": "K7I", "abundance fitness": "-0.779 ± 0.11"}
{"variant": "K7N", "abundance fitness": "-0.534 ± 0.08"}
{"variant": "D34K", "abundance fitness": "-0.518 ± 0.079"}
{"variant": "D34R", "abundance fitness": "-0.699 ± 0.055"}
{"variant": "D34W", "abundance fitness": "-0.984 ± 0.12"}
{"variant": "D34T", "abundance fitness": "-0.724 ± 0.11"}
{"variant": "I35C", "abundance fitness": "-0.348 ± 0.056"}
{"variant": "I35L", "abundance fitness": "-0.279 ± 0.058"}
{"variant": "I35G", "abundance fitness": "-0.627 ± 0.075"}
{"variant": "I35A", "abundance fitness": "-0.326 ± 0.048"}
{"variant": "I35F", "abundance fitness": "-0.681 ± 0.088"}
{"variant": "I35D", "abundance fitness": "-0.225 ± 0.1"}
{"variant": "I35Q", "abundance fitness": "-0.348 ± 0.13"}
{"variant": "N26R", "abundance fitness": "-0.202 ± 0.047"}
{"variant": "N26H", "abundance fitness": "0.215 ± 0.057"}
{"variant": "N26S", "abundance fitness": "-0.103 ± 0.048"}
{"variant": "N26E", "abundance fitness": "0.075 ± 0.089"}
{"variant": "N26W", "abundance fitness": "-0.327 ± 0.065"}
{"variant": "E3H", "abundance fitness": "-0.285 ± 0.075"}
{"variant": "E3I", "abundance fitness": "-0.457 ± 0.098"}
{"variant": "E3T", "abundance fitness": "-0.159 ± 0.059"}
{"variant": "E3A", "abundance fitness": "-0.369 ± 0.074"}
{"variant": "E3Y", "abundance fitness": "-0.298 ± 0.059"}
{"variant": "E3R", "abundance fitness": "-0.334 ± 0.05"}
{"variant": "E3S", "abundance fitness": "-0.213 ± 0.045"}
{"variant": "E3N", "abundance fitness": "-0.196 ± 0.078"}
{"variant": "G46R", "abundance fitness": "-0.902 ± 0.087"}
{"variant": "G46L", "abundance fitness": "-0.974 ± 0.088"}
{"variant": "G46F", "abundance fitness": "-1.05 ± 0.22"}
{"variant": "G46A", "abundance fitness": "-0.844 ± 0.087"}
{"variant": "G46Y", "abundance fitness": "-1.06 ± 0.24"}
{"variant": "E43F", "abundance fitness": "-0.748 ± 0.14"}
{"variant": "E43P", "abundance fitness": "-0.729 ± 0.077"}
{"variant": "E43G", "abundance fitness": "-0.508 ± 0.093"}
{"variant": "E43R", "abundance fitness": "-0.927 ± 0.067"}
{"variant": "E43I", "abundance fitness": "-1.13 ± 0.19"}
{"variant": "E43L", "abundance fitness": "-0.93 ± 0.078"}
{"variant": "R33G", "abundance fitness": "0.207 ± 0.04"}
{"variant": "R33C", "abundance fitness": "0.157 ± 0.05"}
{"variant": "L21Q", "abundance fitness": "0.158 ± 0.095"}
{"variant": "L21S", "abundance fitness": "0.05 ± 0.049"}
{"variant": "L21T", "abundance fitness": "0.125 ± 0.063"}
{"variant": "L21R", "abundance fitness": "-0.02 ± 0.046"}
{"variant": "L21D", "abundance fitness": "0.339 ± 0.083"}
{"variant": "V38P", "abundance fitness": "-0.24 ± 0.056"}
{"variant": "V38M", "abundance fitness": "-0.488 ± 0.075"}
{"variant": "V38G", "abundance fitness": "-0.128 ± 0.06"}
{"variant": "V38D", "abundance fitness": "-0.254 ± 0.17"}
{"variant": "K25P", "abundance fitness": "-0.928 ± 0.12"}
{"variant": "K25A", "abundance fitness": "-0.213 ± 0.057"}
{"variant": "K25W", "abundance fitness": "-0.82 ± 0.092"}
{"variant": "K25C", "abundance fitness": "-0.36 ± 0.1"}
{"variant": "K25S", "abundance fitness": "-0.542 ± 0.06"}
{"variant": "K25Q", "abundance fitness": "-0.024 ± 0.058"}
{"variant": "C9Q", "abundance fitness": "-0.105 ± 0.075"}
{"variant": "C9H", "abundance fitness": "-0.125 ± 0.12"}
{"variant": "C9M", "abundance fitness": "0.042 ± 0.062"}
{"variant": "C9R", "abundance fitness": "0.233 ± 0.037"}
{"variant": "C9E", "abundance fitness": "0.002 ± 0.053"}
{"variant": "I8L", "abundance fitness": "-0.903 ± 0.17"}
{"variant": "I8D", "abundance fitness": "0.302 ± 0.3"}
{"variant": "I8N", "abundance fitness": "-0.543 ± 0.4"}
{"variant": "I8E", "abundance fitness": "-0.374 ± 0.074"}
{"variant": "I8T", "abundance fitness": "-0.713 ± 0.14"}
{"variant": "I8F", "abundance fitness": "-0.506 ± 0.19"}
{"variant": "I8V", "abundance fitness": "-0.649 ± 0.29"}
{"variant": "I8R", "abundance fitness": "-0.374 ± 0.11"}
{"variant": "I8W", "abundance fitness": "-1.3 ± 0.38"}
{"variant": "P55S", "abundance fitness": "-0.288 ± 0.057"}
{"variant": "P55K", "abundance fitness": "-0.49 ± 0.096"}
{"variant": "P55M", "abundance fitness": "-0.632 ± 0.12"}
{"variant": "P55W", "abundance fitness": "-0.721 ± 0.087"}
{"variant": "P55G", "abundance fitness": "-0.434 ± 0.05"}
{"variant": "P55L", "abundance fitness": "-0.594 ± 0.068"}
{"variant": "P55H", "abundance fitness": "-0.435 ± 0.087"}
{"variant": "T61V", "abundance fitness": "-0.193 ± 0.051"}
{"variant": "T61F", "abundance fitness": "-0.737 ± 0.14"}
{"variant": "T61I", "abundance fitness": "-0.818 ± 0.22"}
{"variant": "T61Q", "abundance fitness": "-0.52 ± 0.076"}
{"variant": "T61N", "abundance fitness": "-0.124 ± 0.075"}
{"variant": "L39Y", "abundance fitness": "-0.678 ± 0.087"}
{"variant": "L39D", "abundance fitness": "-0.125 ± 0.086"}
{"variant": "L39G", "abundance fitness": "-0.176 ± 0.05"}
{"variant": "L39S", "abundance fitness": "-0.265 ± 0.052"}
{"variant": "L39I", "abundance fitness": "-0.756 ± 0.094"}
{"variant": "N14Q", "abundance fitness": "0.008 ± 0.087"}
{"variant": "N14K", "abundance fitness": "0.434 ± 0.062"}
{"variant": "N14P", "abundance fitness": "-0.658 ± 0.087"}
{"variant": "V48S", "abundance fitness": "-0.585 ± 0.073"}
{"variant": "V48P", "abundance fitness": "-0.507 ± 0.075"}
{"variant": "V48K", "abundance fitness": "-0.701 ± 0.11"}
{"variant": "V48H", "abundance fitness": "-0.574 ± 0.095"}
{"variant": "V48Q", "abundance fitness": "-0.743 ± 0.11"}
{"variant": "G52M", "abundance fitness": "-0.812 ± 0.16"}
{"variant": "G52E", "abundance fitness": "-0.12 ± 0.067"}
{"variant": "G52C", "abundance fitness": "-0.525 ± 0.056"}
{"variant": "G52T", "abundance fitness": "-0.659 ± 0.081"}
{"variant": "G52R", "abundance fitness": "-0.489 ± 0.064"}
{"variant": "G52S", "abundance fitness": "-0.387 ± 0.063"}
{"variant": "G52W", "abundance fitness": "-0.518 ± 0.086"}
{"variant": "G52F", "abundance fitness": "-0.901 ± 0.14"}
{"variant": "E6D", "abundance fitness": "-0.517 ± 0.15"}
{"variant": "E6L", "abundance fitness": "-0.57 ± 0.068"}
{"variant": "E6Q", "abundance fitness": "-0.03 ± 0.087"}
{"variant": "E6P", "abundance fitness": "-0.831 ± 0.13"}
{"variant": "E6C", "abundance fitness": "-0.654 ± 0.21"}
{"variant": "D10G", "abundance fitness": "-0.514 ± 0.073"}
{"variant": "D10H", "abundance fitness": "0.011 ± 0.1"}
{"variant": "D10W", "abundance fitness": "-0.297 ± 0.073"}
{"variant": "N36Q", "abundance fitness": "-0.156 ± 0.074"}
{"variant": "N36P", "abundance fitness": "-0.49 ± 0.072"}
{"variant": "N36F", "abundance fitness": "-0.455 ± 0.098"}
{"variant": "N36L", "abundance fitness": "-0.282 ± 0.049"}
{"variant": "N36H", "abundance fitness": "0.081 ± 0.064"}
{"variant": "N36W", "abundance fitness": "-0.154 ± 0.07"}
{"variant": "N36Y", "abundance fitness": "-0.232 ± 0.077"}
{"variant": "N36R", "abundance fitness": "-0.38 ± 0.046"}
{"variant": "N36A", "abundance fitness": "-0.497 ± 0.072"}
{"variant": "A37H", "abundance fitness": "0.039 ± 0.066"}
{"variant": "A37L", "abundance fitness": "-0.392 ± 0.061"}
{"variant": "A37W", "abundance fitness": "-0.453 ± 0.067"}
{"variant": "A37S", "abundance fitness": "-0.025 ± 0.054"}
{"variant": "A37Y", "abundance fitness": "-0.457 ± 0.12"}
{"variant": "L60W", "abundance fitness": "-0.793 ± 0.082"}
{"variant": "L60M", "abundance fitness": "-0.295 ± 0.06"}
{"variant": "L60D", "abundance fitness": "-0.356 ± 0.1"}
{"variant": "L60T", "abundance fitness": "-0.551 ± 0.076"}
{"variant": "L60A", "abundance fitness": "-0.196 ± 0.06"}
